Data: paper PMC10786891, “Massively parallel profiling of RNA-targeting CRISPR-Cas13d”

T1: EsCas13d, nuclease-dead (Eubacterium siraeum, UniProt B0MS50, R295A;H300A;R849A;H854A)
T1 sequence: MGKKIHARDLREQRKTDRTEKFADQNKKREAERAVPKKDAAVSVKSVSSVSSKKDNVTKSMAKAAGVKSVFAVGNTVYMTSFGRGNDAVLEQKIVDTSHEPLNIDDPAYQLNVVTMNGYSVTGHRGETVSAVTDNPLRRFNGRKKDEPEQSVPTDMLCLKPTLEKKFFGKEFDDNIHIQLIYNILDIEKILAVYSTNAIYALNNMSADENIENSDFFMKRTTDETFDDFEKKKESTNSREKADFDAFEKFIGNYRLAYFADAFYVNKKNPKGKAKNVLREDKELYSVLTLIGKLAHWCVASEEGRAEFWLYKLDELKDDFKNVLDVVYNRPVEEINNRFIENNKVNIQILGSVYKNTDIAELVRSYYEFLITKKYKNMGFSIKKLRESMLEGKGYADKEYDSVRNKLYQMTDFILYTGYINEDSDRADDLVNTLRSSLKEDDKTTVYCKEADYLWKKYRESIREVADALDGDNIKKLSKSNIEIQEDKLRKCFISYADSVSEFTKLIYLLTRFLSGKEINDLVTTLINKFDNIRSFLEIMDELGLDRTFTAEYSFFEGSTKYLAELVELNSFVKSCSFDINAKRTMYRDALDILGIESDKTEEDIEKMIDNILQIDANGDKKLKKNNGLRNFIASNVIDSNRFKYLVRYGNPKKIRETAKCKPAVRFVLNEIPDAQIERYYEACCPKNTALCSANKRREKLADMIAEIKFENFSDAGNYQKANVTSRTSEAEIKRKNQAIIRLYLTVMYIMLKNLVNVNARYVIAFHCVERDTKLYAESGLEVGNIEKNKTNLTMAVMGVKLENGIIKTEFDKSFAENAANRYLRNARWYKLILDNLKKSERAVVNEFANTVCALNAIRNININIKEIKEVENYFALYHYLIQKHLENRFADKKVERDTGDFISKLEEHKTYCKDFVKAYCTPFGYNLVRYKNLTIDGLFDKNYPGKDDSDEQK


These binders were tested against T1, EsCas13d, nuclease-dead (assay: crRNA (strand 1, pre-loaded); Mg2+; 40 mM Tris-HCl pH 7.5, 150 mM NaCl, 6 mM MgCl2, 1 mM DTT, 0.1% Tween-20, 0.2 mg/ml BSA; 25 C; 10 min per concentration, then washed). Details: tags: His6-TwinStrep-SUMO cleaved; N-terminal SNAP kept (SNAP-Surface 488); label: 3' end held by stalled T7 RNA polymerase.

| Binder | Kd |
| --- | --- |
| target 2 MT 5'PFS UCU 3'PFS AUG (mixed) RNA 1: CACCCGUGCAAAAUUGCAGGGGUCUAAAACCUUCUCCAAAUUGUUUCAUCCU RNA 2: GGGAAUGGAUCCACAUCUACGAAUUCUCUAGGAUGAAACAAUUUGGAGAAGAUGAGAUCGGAAGAGCACACGU | 8.3 ± 1.5 nM |
| target 2 MT 5'PFS AUU 3'PFS AUC (mixed) RNA 1: CACCCGUGCAAAAUUGCAGGGGUCUAAAACCUUCUCCAAAUUGUUUCAUCCU RNA 2: GGGAAUGGAUCCACAUCUACGAAUUCAUUAGGAUGAAACAAUUUGGAGAAGAUCAGAUCGGAAGAGCACACGU | 9.5 ± 1 nM |
| target 2 MT 5'PFS UUG 3'PFS UUU (mixed) RNA 1: CACCCGUGCAAAAUUGCAGGGGUCUAAAACCUUCUCCAAAUUGUUUCAUCCU RNA 2: GGGAAUGGAUCCACAUCUACGAAUUCUUGAGGAUGAAACAAUUUGGAGAAGUUUAGAUCGGAAGAGCACACGU | 25.5 ± 3.3 nM |
| target 2 MT 5'PFS GCU 3'PFS ACG (mixed) RNA 1: CACCCGUGCAAAAUUGCAGGGGUCUAAAACCUUCUCCAAAUUGUUUCAUCCU RNA 2: GGGAAUGGAUCCACAUCUACGAAUUCGCUAGGAUGAAACAAUUUGGAGAAGACGAGAUCGGAAGAGCACACGU | 14.6 ± 1.4 nM |
| target 2 MT 5'PFS AUU 3'PFS AUA (mixed) RNA 1: CACCCGUGCAAAAUUGCAGGGGUCUAAAACCUUCUCCAAAUUGUUUCAUCCU RNA 2: GGGAAUGGAUCCACAUCUACGAAUUCAUUAGGAUGAAACAAUUUGGAGAAGAUAAGAUCGGAAGAGCACACGU | 5.3 ± 0.4 nM |
| target 2 MT 5'PFS GCU 3'PFS ACC (mixed) RNA 1: CACCCGUGCAAAAUUGCAGGGGUCUAAAACCUUCUCCAAAUUGUUUCAUCCU RNA 2: GGGAAUGGAUCCACAUCUACGAAUUCGCUAGGAUGAAACAAUUUGGAGAAGACCAGAUCGGAAGAGCACACGU | ~30 nM |
| target 1 G12U,A20U (mixed) RNA 1: CACCCGUGCAAAAAUGCAGGGGUCUAAAACUGAGCGGAUAACCUCUCUAUGG RNA 2: GGGAAUGGAUCCACAUCUACGAAUUCGUACCUUAGAGAGUUUAUCCGCUCACCGAGAUCGGAAGAGCACACGU | 27.5 ± 2.3 nM |
| target 2 MT 5'PFS GCU 3'PFS ACA (mixed) RNA 1: CACCCGUGCAAAAUUGCAGGGGUCUAAAACCUUCUCCAAAUUGUUUCAUCCU RNA 2: GGGAAUGGAUCCACAUCUACGAAUUCGCUAGGAUGAAACAAUUUGGAGAAGACAAGAUCGGAAGAGCACACGU | 15 ± 4 nM |
| target 2 MT 5'PFS GCA 3'PFS AGU (mixed) RNA 1: CACCCGUGCAAAAUUGCAGGGGUCUAAAACCUUCUCCAAAUUGUUUCAUCCU RNA 2: GGGAAUGGAUCCACAUCUACGAAUUCGCAAGGAUGAAACAAUUUGGAGAAGAGUAGAUCGGAAGAGCACACGU | 28 ± 10 nM |
| target 2 MT 5'PFS GCU 3'PFS ACU (mixed) RNA 1: CACCCGUGCAAAAUUGCAGGGGUCUAAAACCUUCUCCAAAUUGUUUCAUCCU RNA 2: GGGAAUGGAUCCACAUCUACGAAUUCGCUAGGAUGAAACAAUUUGGAGAAGACUAGAUCGGAAGAGCACACGU | 23 ± 4 nM |
| target 2 MT 5'PFS AGC 3'PFS UUA (mixed) RNA 1: CACCCGUGCAAAAUUGCAGGGGUCUAAAACCUUCUCCAAAUUGUUUCAUCCU RNA 2: GGGAAUGGAUCCACAUCUACGAAUUCAGCAGGAUGAAACAAUUUGGAGAAGUUAAGAUCGGAAGAGCACACGU | 10.9 ± 2.4 nM |
| target 2 MT 5'PFS UAA 3'PFS CUU (mixed) RNA 1: CACCCGUGCAAAAUUGCAGGGGUCUAAAACCUUCUCCAAAUUGUUUCAUCCU RNA 2: GGGAAUGGAUCCACAUCUACGAAUUCUAAAGGAUGAAACAAUUUGGAGAAGCUUAGAUCGGAAGAGCACACGU | 6.9 ± 1.5 nM |
| target 2 MT 5'PFS AGC 3'PFS UUG (mixed) RNA 1: CACCCGUGCAAAAUUGCAGGGGUCUAAAACCUUCUCCAAAUUGUUUCAUCCU RNA 2: GGGAAUGGAUCCACAUCUACGAAUUCAGCAGGAUGAAACAAUUUGGAGAAGUUGAGAUCGGAAGAGCACACGU | 10.6 ± 1.4 nM |
| target 2 MT 5'PFS AUA 3'PFS UCU (mixed) RNA 1: CACCCGUGCAAAAUUGCAGGGGUCUAAAACCUUCUCCAAAUUGUUUCAUCCU RNA 2: GGGAAUGGAUCCACAUCUACGAAUUCAUAAGGAUGAAACAAUUUGGAGAAGUCUAGAUCGGAAGAGCACACGU | 33 ± 15 nM |
| target 2 MT 5'PFS UAA 3'PFS CUG (mixed) RNA 1: CACCCGUGCAAAAUUGCAGGGGUCUAAAACCUUCUCCAAAUUGUUUCAUCCU RNA 2: GGGAAUGGAUCCACAUCUACGAAUUCUAAAGGAUGAAACAAUUUGGAGAAGCUGAGAUCGGAAGAGCACACGU | 6.2 ± 1.1 nM |
| target 2 MT 5'PFS UAA 3'PFS CUA (mixed) RNA 1: CACCCGUGCAAAAUUGCAGGGGUCUAAAACCUUCUCCAAAUUGUUUCAUCCU RNA 2: GGGAAUGGAUCCACAUCUACGAAUUCUAAAGGAUGAAACAAUUUGGAGAAGCUAAGAUCGGAAGAGCACACGU | 4.6 ± 0.5 nM |
| target 2 MT 5'PFS AGC 3'PFS UUU (mixed) RNA 1: CACCCGUGCAAAAUUGCAGGGGUCUAAAACCUUCUCCAAAUUGUUUCAUCCU RNA 2: GGGAAUGGAUCCACAUCUACGAAUUCAGCAGGAUGAAACAAUUUGGAGAAGUUUAGAUCGGAAGAGCACACGU | 20 ± 4 nM |
| target 1 C7U,A18C (mixed) RNA 1: CACCCGUGCAAAAAUGCAGGGGUCUAAAACUGAGCGGAUAACCUCUCUAUGG RNA 2: GGGAAUGGAUCCACAUCUACGAAUUCGUACCAUCGAGAGGUUAUUCGCUCACCGAGAUCGGAAGAGCACACGU | 55 ± 5 nM |
| target 2 MT 5'PFS UAA 3'PFS CUC (mixed) RNA 1: CACCCGUGCAAAAUUGCAGGGGUCUAAAACCUUCUCCAAAUUGUUUCAUCCU RNA 2: GGGAAUGGAUCCACAUCUACGAAUUCUAAAGGAUGAAACAAUUUGGAGAAGCUCAGAUCGGAAGAGCACACGU | 6.7 ± 0.9 nM |
| target 2 MT 5'PFS AUA 3'PFS UCA (mixed) RNA 1: CACCCGUGCAAAAUUGCAGGGGUCUAAAACCUUCUCCAAAUUGUUUCAUCCU RNA 2: GGGAAUGGAUCCACAUCUACGAAUUCAUAAGGAUGAAACAAUUUGGAGAAGUCAAGAUCGGAAGAGCACACGU | 12.3 ± 2.6 nM |
| target 2 MT 5'PFS AUA 3'PFS UCC (mixed) RNA 1: CACCCGUGCAAAAUUGCAGGGGUCUAAAACCUUCUCCAAAUUGUUUCAUCCU RNA 2: GGGAAUGGAUCCACAUCUACGAAUUCAUAAGGAUGAAACAAUUUGGAGAAGUCCAGAUCGGAAGAGCACACGU | 15.6 ± 2.1 nM |
| target 2 MT 5'PFS AUA 3'PFS UCG (mixed) RNA 1: CACCCGUGCAAAAUUGCAGGGGUCUAAAACCUUCUCCAAAUUGUUUCAUCCU RNA 2: GGGAAUGGAUCCACAUCUACGAAUUCAUAAGGAUGAAACAAUUUGGAGAAGUCGAGAUCGGAAGAGCACACGU | 20 ± 6 nM |
| target 2 MT 5'PFS GAA 3'PFS UUC (mixed) RNA 1: CACCCGUGCAAAAUUGCAGGGGUCUAAAACCUUCUCCAAAUUGUUUCAUCCU RNA 2: GGGAAUGGAUCCACAUCUACGAAUUCGAAAGGAUGAAACAAUUUGGAGAAGUUCAGAUCGGAAGAGCACACGU | ~70 nM |
| target 2 MT 5'PFS CGG 3'PFS ACU (mixed) RNA 1: CACCCGUGCAAAAUUGCAGGGGUCUAAAACCUUCUCCAAAUUGUUUCAUCCU RNA 2: GGGAAUGGAUCCACAUCUACGAAUUCCGGAGGAUGAAACAAUUUGGAGAAGACUAGAUCGGAAGAGCACACGU | 6.8 ± 1.1 nM |
| target 2 MT 5'PFS GUC 3'PFS AUU (mixed) RNA 1: CACCCGUGCAAAAUUGCAGGGGUCUAAAACCUUCUCCAAAUUGUUUCAUCCU RNA 2: GGGAAUGGAUCCACAUCUACGAAUUCGUCAGGAUGAAACAAUUUGGAGAAGAUUAGAUCGGAAGAGCACACGU | 11.2 ± 1.3 nM |
| target 2 MT 5'PFS UAG 3'PFS CGA (mixed) RNA 1: CACCCGUGCAAAAUUGCAGGGGUCUAAAACCUUCUCCAAAUUGUUUCAUCCU RNA 2: GGGAAUGGAUCCACAUCUACGAAUUCUAGAGGAUGAAACAAUUUGGAGAAGCGAAGAUCGGAAGAGCACACGU | 2.55 ± 0.33 nM |
| target 2 MT 5'PFS UAG 3'PFS CGG (mixed) RNA 1: CACCCGUGCAAAAUUGCAGGGGUCUAAAACCUUCUCCAAAUUGUUUCAUCCU RNA 2: GGGAAUGGAUCCACAUCUACGAAUUCUAGAGGAUGAAACAAUUUGGAGAAGCGGAGAUCGGAAGAGCACACGU | 2.89 ± 0.35 nM |
| target 2 MT 5'PFS CGG 3'PFS ACG (mixed) RNA 1: CACCCGUGCAAAAUUGCAGGGGUCUAAAACCUUCUCCAAAUUGUUUCAUCCU RNA 2: GGGAAUGGAUCCACAUCUACGAAUUCCGGAGGAUGAAACAAUUUGGAGAAGACGAGAUCGGAAGAGCACACGU | 4.05 ± 0.24 nM |
